{
  "source": "paper PMC6713349",
  "about": "“Structural analysis of the recognition of the -35 promoter element by SigW from Bacillus subtilis”",
  "binders": {"B1": {"name": "-35W (SigW -35 promoter element) (dsDNA)", "DNA 1": "ATTGAAACCTTT", "DNA 2": "AAAAGGTTTCAA"}},
  "target": "T1, SigW sigma4 domain (σW4) (Bacillus subtilis 168, UniProt Q45585 126-187)",
  "T1 sequence": "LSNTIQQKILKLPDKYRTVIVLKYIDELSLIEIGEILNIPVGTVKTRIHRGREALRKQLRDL",
  "experiment": "X-ray crystallography (3.1 Å); 1:1 complex, DNA mixed at 1.1:1; printed Kd 1.47e-8 M is computed from PISA ΔG, not measured, so not taken; Complex dialysed in 20 mM HEPES pH 7.5, 0.2 M NaCl, 5% glycerol; crystals from PEG1500 and isopropanol; temperature not stated",
  "settings": "protein: recombinant; tags: N-terminal 6xHis, removed with TEV protease; 5' overhang 1 nt at each end, 11 bp",
  "data": [
    {"binder": "B1", "values": [
      {"measurement": "binding result", "result": "binds"}
    ]}
  ]
}
